According to patent publication US20150299281A1 (ZEALAND PHARMA A S, published 2015):
One block for each binder: values may come before it. Numbered stars: 1 amine (or outer) side, 2 acyl side, 3 side chain; on linkers, the order of the positions; unused ones are H or OH. Square brackets hold non-standard residues; d marks the D form. Side chains are listed from the residue outwards. * marks the point of attachment. γGlu = O=C(O)[C@H](CCC(=O)[*:2])N[*:1]; Palmitoyl = CCCCCCCCCCCCCCCC(=O)*; Aib = CC(C)(N)C(=O)O

Key:
human GIP receptor = molecular target: T1, human GIP receptor (human, UniProt P48546 22-466); assay: cell-based or functional assay
T1 sequence (looked up): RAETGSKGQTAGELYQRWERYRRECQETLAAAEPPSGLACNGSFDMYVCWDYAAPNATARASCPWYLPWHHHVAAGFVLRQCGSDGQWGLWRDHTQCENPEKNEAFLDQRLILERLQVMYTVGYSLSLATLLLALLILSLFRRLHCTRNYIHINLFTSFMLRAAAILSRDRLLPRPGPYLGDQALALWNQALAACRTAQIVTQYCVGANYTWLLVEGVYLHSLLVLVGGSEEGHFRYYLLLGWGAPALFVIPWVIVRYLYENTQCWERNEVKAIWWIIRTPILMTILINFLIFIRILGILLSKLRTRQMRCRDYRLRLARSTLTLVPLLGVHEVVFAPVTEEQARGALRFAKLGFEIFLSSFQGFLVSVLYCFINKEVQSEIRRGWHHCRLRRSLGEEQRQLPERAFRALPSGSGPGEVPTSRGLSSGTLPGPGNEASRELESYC

human GLP-1 receptor = human GLP-1 receptor (human, UniProt P43220 24-463); assay: cell-based or functional assay

B1: Compound 47 (peptide)
peptide: H-Y[Aib]EGTFTSDYSIYLDSK([γGlu-Palmitoyl])AAHDFVEWLLRA-NH2
SMILES: CCCCCCCCCCCCCCCC(=O)N[C@@H](CCC(=O)NCCCC[C@H](NC(=O)[C@H](CO)NC(=O)[C@H](CC(=O)O)NC(=O)[C@H](CC(C)C)NC(=O)[C@H](Cc1ccc(O)cc1)NC(=O)[C@@H](NC(=O)[C@H](CO)NC(=O)[C@H](Cc1ccc(O)cc1)NC(=O)[C@H](CC(=O)O)NC(=O)[C@H](CO)NC(=O)[C@@H](NC(=O)[C@H](Cc1ccccc1)NC(=O)[C@@H](NC(=O)CNC(=O)[C@H](CCC(=O)O)NC(=O)C(C)(C)NC(=O)[C@@H](N)Cc1ccc(O)cc1)[C@@H](C)O)[C@@H](C)O)[C@@H](C)CC)C(=O)N[C@@H](C)C(=O)N[C@@H](C)C(=O)N[C@@H](Cc1c[nH]cn1)C(=O)N[C@@H](CC(=O)O)C(=O)N[C@@H](Cc1ccccc1)C(=O)N[C@H](C(=O)N[C@@H](CCC(=O)O)C(=O)N[C@@H](Cc1c[nH]c2ccccc12)C(=O)N[C@@H](CC(C)C)C(=O)N[C@@H](CC(C)C)C(=O)N[C@@H](CCCNC(=N)N)C(=O)N[C@@H](C)C(N)=O)C(C)C)C(=O)O
- EC50, cAMP induction in HEK293 cells expressing human GIP R (human GIP receptor): 0.096 nM
- EC50, cAMP induction in HEK293 cells expressing human GLP-1 R (human GLP-1 receptor): 0.14 nM

B3: Compound 46 (peptide)
peptide: H-Y[Aib]EGTFTSDYSIYLEKK([γGlu-Palmitoyl])AAKEFVEWLLSA-NH2
SMILES: CCCCCCCCCCCCCCCC(=O)N[C@@H](CCC(=O)NCCCC[C@H](NC(=O)[C@H](CCCCN)NC(=O)[C@H](CCC(=O)O)NC(=O)[C@H](CC(C)C)NC(=O)[C@H](Cc1ccc(O)cc1)NC(=O)[C@@H](NC(=O)[C@H](CO)NC(=O)[C@H](Cc1ccc(O)cc1)NC(=O)[C@H](CC(=O)O)NC(=O)[C@H](CO)NC(=O)[C@@H](NC(=O)[C@H](Cc1ccccc1)NC(=O)[C@@H](NC(=O)CNC(=O)[C@H](CCC(=O)O)NC(=O)C(C)(C)NC(=O)[C@@H](N)Cc1ccc(O)cc1)[C@@H](C)O)[C@@H](C)O)[C@@H](C)CC)C(=O)N[C@@H](C)C(=O)N[C@@H](C)C(=O)N[C@@H](CCCCN)C(=O)N[C@@H](CCC(=O)O)C(=O)N[C@@H](Cc1ccccc1)C(=O)N[C@H](C(=O)N[C@@H](CCC(=O)O)C(=O)N[C@@H](Cc1c[nH]c2ccccc12)C(=O)N[C@@H](CC(C)C)C(=O)N[C@@H](CC(C)C)C(=O)N[C@@H](CO)C(=O)N[C@@H](C)C(N)=O)C(C)C)C(=O)O
- EC50, cAMP induction in HEK293 cells expressing human GIP R (human GIP receptor): 0.088 nM
- EC50, cAMP induction in HEK293 cells expressing human GLP-1 R (human GLP-1 receptor): 0.048 nM

B5: Compound 44 (peptide)
peptide: H-Y[Aib]EGTFTSDYSIYLDSKAAHDFVEWLLRA-NH2
SMILES: CC[C@H](C)[C@H](NC(=O)[C@H](CO)NC(=O)[C@H](Cc1ccc(O)cc1)NC(=O)[C@H](CC(=O)O)NC(=O)[C@H](CO)NC(=O)[C@@H](NC(=O)[C@H](Cc1ccccc1)NC(=O)[C@@H](NC(=O)CNC(=O)[C@H](CCC(=O)O)NC(=O)C(C)(C)NC(=O)[C@@H](N)Cc1ccc(O)cc1)[C@@H](C)O)[C@@H](C)O)C(=O)N[C@@H](Cc1ccc(O)cc1)C(=O)N[C@@H](CC(C)C)C(=O)N[C@@H](CC(=O)O)C(=O)N[C@@H](CO)C(=O)N[C@@H](CCCCN)C(=O)N[C@@H](C)C(=O)N[C@@H](C)C(=O)N[C@@H](Cc1c[nH]cn1)C(=O)N[C@@H](CC(=O)O)C(=O)N[C@@H](Cc1ccccc1)C(=O)N[C@H](C(=O)N[C@@H](CCC(=O)O)C(=O)N[C@@H](Cc1c[nH]c2ccccc12)C(=O)N[C@@H](CC(C)C)C(=O)N[C@@H](CC(C)C)C(=O)N[C@@H](CCCNC(=N)N)C(=O)N[C@@H](C)C(N)=O)C(C)C
- EC50, cAMP induction in HEK293 cells expressing human GIP R (human GIP receptor): 0.016 nM
- EC50, cAMP induction in HEK293 cells expressing human GLP-1 R (human GLP-1 receptor): 0.013 nM

B6: Compound 45 (peptide)
peptide: H-Y[Aib]EGTFTSDYSKYLDSK([γGlu-Palmitoyl])AAHDFVEWLLSA-NH2
SMILES: CCCCCCCCCCCCCCCC(=O)N[C@@H](CCC(=O)NCCCC[C@H](NC(=O)[C@H](CO)NC(=O)[C@H](CC(=O)O)NC(=O)[C@H](CC(C)C)NC(=O)[C@H](Cc1ccc(O)cc1)NC(=O)[C@H](CCCCN)NC(=O)[C@H](CO)NC(=O)[C@H](Cc1ccc(O)cc1)NC(=O)[C@H](CC(=O)O)NC(=O)[C@H](CO)NC(=O)[C@@H](NC(=O)[C@H](Cc1ccccc1)NC(=O)[C@@H](NC(=O)CNC(=O)[C@H](CCC(=O)O)NC(=O)C(C)(C)NC(=O)[C@@H](N)Cc1ccc(O)cc1)[C@@H](C)O)[C@@H](C)O)C(=O)N[C@@H](C)C(=O)N[C@@H](C)C(=O)N[C@@H](Cc1c[nH]cn1)C(=O)N[C@@H](CC(=O)O)C(=O)N[C@@H](Cc1ccccc1)C(=O)N[C@H](C(=O)N[C@@H](CCC(=O)O)C(=O)N[C@@H](Cc1c[nH]c2ccccc12)C(=O)N[C@@H](CC(C)C)C(=O)N[C@@H](CC(C)C)C(=O)N[C@@H](CO)C(=O)N[C@@H](C)C(N)=O)C(C)C)C(=O)O
- EC50, cAMP induction in HEK293 cells expressing human GIP R (human GIP receptor): 0.32 nM
- EC50, cAMP induction in HEK293 cells expressing human GLP-1 R (human GLP-1 receptor): 0.11 nM

B8: Compound 43 (peptide)
peptide: H-Y[Aib]EGTFTSDYSIYLEKKAAKEFVEWLLSA-NH2
SMILES: CC[C@H](C)[C@H](NC(=O)[C@H](CO)NC(=O)[C@H](Cc1ccc(O)cc1)NC(=O)[C@H](CC(=O)O)NC(=O)[C@H](CO)NC(=O)[C@@H](NC(=O)[C@H](Cc1ccccc1)NC(=O)[C@@H](NC(=O)CNC(=O)[C@H](CCC(=O)O)NC(=O)C(C)(C)NC(=O)[C@@H](N)Cc1ccc(O)cc1)[C@@H](C)O)[C@@H](C)O)C(=O)N[C@@H](Cc1ccc(O)cc1)C(=O)N[C@@H](CC(C)C)C(=O)N[C@@H](CCC(=O)O)C(=O)N[C@@H](CCCCN)C(=O)N[C@@H](CCCCN)C(=O)N[C@@H](C)C(=O)N[C@@H](C)C(=O)N[C@@H](CCCCN)C(=O)N[C@@H](CCC(=O)O)C(=O)N[C@@H](Cc1ccccc1)C(=O)N[C@H](C(=O)N[C@@H](CCC(=O)O)C(=O)N[C@@H](Cc1c[nH]c2ccccc12)C(=O)N[C@@H](CC(C)C)C(=O)N[C@@H](CC(C)C)C(=O)N[C@@H](CO)C(=O)N[C@@H](C)C(N)=O)C(C)C
- EC50, cAMP induction in HEK293 cells expressing human GIP R (human GIP receptor): 0.0091 nM
- EC50, cAMP induction in HEK293 cells expressing human GLP-1 R (human GLP-1 receptor): 0.017 nM

Further lines, results first:

- EC50, cAMP induction in HEK293 cells expressing human GIP R (human GIP receptor): 0.053 nM
- EC50, cAMP induction in HEK293 cells expressing human GLP-1 R (human GLP-1 receptor): 0.09 nM
B2: Compound 50 (peptide)
peptide: H-Y[Aib]EGTFTSDYSIYLDEK([γGlu-Palmitoyl])AAKDFIEWLESA-NH2
SMILES: CCCCCCCCCCCCCCCC(=O)N[C@@H](CCC(=O)NCCCC[C@H](NC(=O)[C@H](CCC(=O)O)NC(=O)[C@H](CC(=O)O)NC(=O)[C@H](CC(C)C)NC(=O)[C@H](Cc1ccc(O)cc1)NC(=O)[C@@H](NC(=O)[C@H](CO)NC(=O)[C@H](Cc1ccc(O)cc1)NC(=O)[C@H](CC(=O)O)NC(=O)[C@H](CO)NC(=O)[C@@H](NC(=O)[C@H](Cc1ccccc1)NC(=O)[C@@H](NC(=O)CNC(=O)[C@H](CCC(=O)O)NC(=O)C(C)(C)NC(=O)[C@@H](N)Cc1ccc(O)cc1)[C@@H](C)O)[C@@H](C)O)[C@@H](C)CC)C(=O)N[C@@H](C)C(=O)N[C@@H](C)C(=O)N[C@@H](CCCCN)C(=O)N[C@@H](CC(=O)O)C(=O)N[C@@H](Cc1ccccc1)C(=O)N[C@H](C(=O)N[C@@H](CCC(=O)O)C(=O)N[C@@H](Cc1c[nH]c2ccccc12)C(=O)N[C@@H](CC(C)C)C(=O)N[C@@H](CCC(=O)O)C(=O)N[C@@H](CO)C(=O)N[C@@H](C)C(N)=O)[C@@H](C)CC)C(=O)O

- EC50, cAMP induction in HEK293 cells expressing human GIP R (human GIP receptor): 0.061 nM
- EC50, cAMP induction in HEK293 cells expressing human GLP-1 R (human GLP-1 receptor): 0.041 nM
B4: Compound 48 (peptide)
peptide: H-Y[Aib]EGTFTSDYSIYLDEK([γGlu-Palmitoyl])AAKDFVEWLESA-NH2
SMILES: CCCCCCCCCCCCCCCC(=O)N[C@@H](CCC(=O)NCCCC[C@H](NC(=O)[C@H](CCC(=O)O)NC(=O)[C@H](CC(=O)O)NC(=O)[C@H](CC(C)C)NC(=O)[C@H](Cc1ccc(O)cc1)NC(=O)[C@@H](NC(=O)[C@H](CO)NC(=O)[C@H](Cc1ccc(O)cc1)NC(=O)[C@H](CC(=O)O)NC(=O)[C@H](CO)NC(=O)[C@@H](NC(=O)[C@H](Cc1ccccc1)NC(=O)[C@@H](NC(=O)CNC(=O)[C@H](CCC(=O)O)NC(=O)C(C)(C)NC(=O)[C@@H](N)Cc1ccc(O)cc1)[C@@H](C)O)[C@@H](C)O)[C@@H](C)CC)C(=O)N[C@@H](C)C(=O)N[C@@H](C)C(=O)N[C@@H](CCCCN)C(=O)N[C@@H](CC(=O)O)C(=O)N[C@@H](Cc1ccccc1)C(=O)N[C@H](C(=O)N[C@@H](CCC(=O)O)C(=O)N[C@@H](Cc1c[nH]c2ccccc12)C(=O)N[C@@H](CC(C)C)C(=O)N[C@@H](CCC(=O)O)C(=O)N[C@@H](CO)C(=O)N[C@@H](C)C(N)=O)C(C)C)C(=O)O

- EC50, cAMP induction in HEK293 cells expressing human GIP R (human GIP receptor): 0.092 nM
- EC50, cAMP induction in HEK293 cells expressing human GLP-1 R (human GLP-1 receptor): 0.049 nM
B7: Compound 49 (peptide)
peptide: H-Y[Aib]EGTFTSDYSKYLDEK([γGlu-Palmitoyl])AAKDFIEWLESA-NH2
SMILES: CCCCCCCCCCCCCCCC(=O)N[C@@H](CCC(=O)NCCCC[C@H](NC(=O)[C@H](CCC(=O)O)NC(=O)[C@H](CC(=O)O)NC(=O)[C@H](CC(C)C)NC(=O)[C@H](Cc1ccc(O)cc1)NC(=O)[C@H](CCCCN)NC(=O)[C@H](CO)NC(=O)[C@H](Cc1ccc(O)cc1)NC(=O)[C@H](CC(=O)O)NC(=O)[C@H](CO)NC(=O)[C@@H](NC(=O)[C@H](Cc1ccccc1)NC(=O)[C@@H](NC(=O)CNC(=O)[C@H](CCC(=O)O)NC(=O)C(C)(C)NC(=O)[C@@H](N)Cc1ccc(O)cc1)[C@@H](C)O)[C@@H](C)O)C(=O)N[C@@H](C)C(=O)N[C@@H](C)C(=O)N[C@@H](CCCCN)C(=O)N[C@@H](CC(=O)O)C(=O)N[C@@H](Cc1ccccc1)C(=O)N[C@H](C(=O)N[C@@H](CCC(=O)O)C(=O)N[C@@H](Cc1c[nH]c2ccccc12)C(=O)N[C@@H](CC(C)C)C(=O)N[C@@H](CCC(=O)O)C(=O)N[C@@H](CO)C(=O)N[C@@H](C)C(N)=O)[C@@H](C)CC)C(=O)O
